Measurements as given in patent US20190248902A1 (published 2019).

T1: human ASGR-1 mutant construct H203 (human, UniProt P07306 1-291)
T1 construct: Arg/Glu scanning: non-arginine residues were changed to arginine; Transiently expressed on CHO-S cells
T1 sequence: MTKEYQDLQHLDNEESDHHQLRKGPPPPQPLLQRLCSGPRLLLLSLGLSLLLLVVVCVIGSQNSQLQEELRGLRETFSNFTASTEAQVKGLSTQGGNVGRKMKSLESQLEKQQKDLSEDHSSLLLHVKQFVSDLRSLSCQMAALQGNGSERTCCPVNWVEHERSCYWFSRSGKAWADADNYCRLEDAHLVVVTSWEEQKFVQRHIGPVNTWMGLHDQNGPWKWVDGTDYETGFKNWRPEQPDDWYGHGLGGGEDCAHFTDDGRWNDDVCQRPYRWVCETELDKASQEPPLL


The binders below were run against T1, human ASGR-1 mutant construct H203 (assay: FACS ratio: H203 normalized value / wt normalized value).
In short: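 Transiently transfected CHO-S cells expressing wild-type or mutant hASGR-1 incubated with antibody at 5 ug/ml, 1 h at 4 °C; bound antibody detected by Alexa Fluor 647 anti-Fc plus 7-AAD, by flow cytometry. Binding normalized to expression using an unaffected antibody (65C12), then to wild type; hits defined as >3× IQR above third quartile.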

Row | Binder | Normalization to wt ASGR1 Binding
1 | 6G7 (antibody, V domains shown, mAb) VH: QVQLVESGGGVVQPGRSLRLSCAASGFTFSSYGMHWVRQTPGKGLEWVAIISYVGKNKYYADSVKGRFTISRDNSKNTLYLQMNSLRAEDTAVYYCARRGNSYGGYGMDVWGQGTTVTVSS VL: DIQMTQSPSSRSASVGDRVTITCQASQDISNYLNWCQQKPGKALKLLIYDASTLETGVPSRFSGSGSGTDFTFTISSVQPEDIATYYCQQYDNVPITFGQGTRLEIK | 1.18
2 | 7E11 (antibody, V domains shown, mAb) VH: QVQLVESGGGVVQPGRSLRLSCAASGFTFSSFGMHWVRQAPGKGLEWVAIIWHDGSNKYYADSVKGRFTISRDNSNNTLYLQMSSLRAEDTAVYYCARDLSMGGMDVWGQGTTVTVSS VL: DIQMTQSPSSLSASVGDRVTIACRASQNIISYLNWYQQKPGKAPKFLIYTASSLQSGVPSRFSGSGSGTDFTLTISSLQPEDFAIYYCQQTYSTPLTFGGGTKVEIK | 1.42
3 | 48B12 (antibody, V domains shown, mAb) VH: EVQLLESGGGLVQPGGSLRLSCAASGFTFSSYAMNWVRQAPGKGLEWVSAISGRGGNTFYADSVKGRFTISRDNSKNTLYLQMNSLRAEDTAVYYCAKRETYNWNYEGFDYWGQGTLVTVSS VL: SYELTQPPSVSVSPGQTARITCSGDALPKKYAYWYQQKSGQAPVLVIYEDSKRPSGIPERFSGSSSGTMATLTISGAQVEDEADYYCNSTDSSGNHVVFGGGTKLTVL | 1.18
4 | 4A2 (antibody, V domains shown, mAb) VH: QVQLVQSGTEVKKPGASVKVSCKASGYTFTNYDINWVRQATGQGLEWMGWMHPNSGNTGYAQKFQGRVTLTRNTSISTAYMELSSLRSEDTAVYYCASSSGWYYFDYWGQGTLVTVSS VL: DIVMTQSPDSLAVSLGERATINCKSSQSILHSSNNNNYLAWFQQKPGQPPKLLLYWASTRESGVPDRFSGSGSGTDFTLTISSLQPEDVAVYYCQQYYNTPVTFGPGTKVGIK | 0.997
5 | 26C4 (antibody, V domains shown, mAb) VH: QVQLVQSGAEVKKPGASVKVSCKASGYTFTNYDINWVRQASGQGLEWMGWMNPNSGNTGYAQRFQGRVTMTRNTSINTAYMELSSLRSEDTAVYYCASSSGWYYFDYWGQGTLVTVSS VL: not shown | 1.57
6 | 25A4 (antibody, V domains shown, mAb) VH: QVLLVQSGAEVKRPGASVKVSCKASGYTFTNYDINWVRQATGQGLEWMGWMYPNSGNTGYAQKFQGRVTMTRNTSISTAYMELSSLRSEDTAVYYCASSSGWYYFDYWGQGTLVTVSS VL: DIVMTQFPDSLAVSLGERATIKCKSSQSVLYSSHNNNYLAWYQQKPGQPPKLLLYWASTRESGVPDRFSGSGSGTEFTLTISSLEAEDVAVYYCQQYYSTPPTFGQGTKVEIK | 1.27
7 | 29H8 (antibody, V domains shown, mAb) VH: QVQLVQSGAEVQKPGASVKVSCKASGYTFTNYDINWVRQATGQGLEWMGWMNPNSGNTGYAQRFQGRVTMTRNTSISAAYMELSSLRSEDTAVYYCASSSGWYYFDYWGQGTLVTVSS VL: not shown | 1.42
8 | 56E5 (antibody, V domains shown, mAb) VH: QVQLVQSGAEVKKPGASVKVSCQASGYTFTGYHMHWVRQAPGQGLEWMGWINPNNNATNYAQKFQGRVTMTRDTSISTAYMELRRLRSDDTAVYHCARDGTSSFDYWGQGTLVTVSS VL: DIQMTQSPSSVSASVGDRVTITCRASQGIRKWLAWYQQKPGKAPKLLIYAASSLQSGVPSRFSGSGSGTDFTLTISSLQPEDFATYYCQQANSFPFTFGPGTKVDIK | 0.962
9 | 5E5 (antibody, V domains shown, mAb) VH: QVQLVESGGGVVQPGRSLRLSCAASGFTFSNYVMHWVRQAPGKGLEWVAVIWYDGSNKYYADSVKGRFTISRDNSKNTLYLQMNSLRAEDTAVYYCTREVYSSGWYDYGMDVWGQGTTVTVSS VL: DIQMTQSPSSLSASVGDRVTITCRASQGIRNDLGWYQQKPGKAPKRLIYAASSLQSGVPSRFSGSGSGTEFTLTISSLQPEDFATYYCLQHYSYPRTFGQGTKVEVK | 1.48
10 | 7G4 (antibody, V domains shown, mAb) VH: QVQLVESGGGVVQPGRSLRLSCAASGFTFNNYVMHWVRQAPGKGLEWVAVIWYDGSNKYYADSVKGRFTISRDNSKNTLYLQMTSLRAEDTAVYYCAREKYSSNWYDYGMDVWGQGTTVTVSS VL: DIQMTQSPSSLSASVGDRVTITCRASQGIRNDLGWYQQRPGKAPKRLIYAASSLQSGVPSRFSGSGSGTEFTLTISSLQPEDSATYYCLHQYSYPRTFGQGTKVEIK | 1.2
11 | 22G5 (antibody, V domains shown, mAb) VH: EVQLLESGGGLVQPGGSLRLSCAASGFTFSSYAMNWVRQAPGMGLEWVSVISRSGGYTYYADSVKGRFTISRDNSKNTLYLQMNSLRAEDTAVYYCASRLAVAGSEAFDIWGQGTLVTVSS VL: DIQMTQSPSSLSASVGDRVTITCRASQNISSYLNWYQQKQGKAPKLLIYAASSLQNGVPSRFSGRGSGTDFTLTISSLQPEDFATYYCQQSYRTPLFTFGPGTKVDFK | 1.37
12 | 190F8 (antibody, V domains shown, mAb) VH: QVQLVESGGGVVQPGRSLRLSCAASGFTFSTYGMHWVRQAPGKGLEWVAVIWYDGSNKNYADSVKGRFTISRDNSKNTLYLQMNSLRAEDTAVYYCARDQGVGYDGLDVWGQGTTVTVSS VL: DIQMTQSPSSLSASVGDRVTITCRTSQGIGNYLAWFQQKPGKAPKSLLYKASSLQSGVPSKFSGSGSGTDFTLTISSLQPEDFATYYCQQYMTYPLTFGGGTKVEIK | 1.11

Second part, the binder after the results:

Row | Normalization to wt ASGR1 Binding | Binder
13 | 0.616 | 194A4 (antibody, V domains shown, mAb) VH: QVQLVQSGTEVKKPGASLKVSCKASGYTFTVYYLNWVRQAPGQGLEWMGWINPNSGGTNYAQKFQGRVTMTRDTSISTAYMELSRLRSDDTAVYYCARGYDILTGWGQGTLVTVSS VL: EIVLTQSPGTLSLSPGERATLSCRASRGVSNIYLAWYQQKPGQAPRLLIYGASNRATGIPDRFSGSGSGTDFTLTISRLEPEDFAVYYCQHNDYSMFTFGPGTKVDIK
14 | 1.07 | 184E7 (antibody, V domains shown, mAb) VH: QVQLVQSGAEVKTPGASVKVSCRASGYTFTSYNMHWVRQVPGQGLEWMGWINPNNGGSNYTQKFQGRVTMTRDTSISTAYMELSRLRSDDTAVYYCARKFGDWGQGTLVTVSS VL: DIQMTQSPSSRSASIGERVTITCRASQGISNYLAWIQQKPGTAPKSLIYAASSLQSGVSSRFSGSGFGTDFTITISSVQREDFATYYCQQYNGYPFTFGHGTKVDIK
15 | 0.893 | 72G9 (antibody, V domains shown, mAb) VH: EVQLVESGGGLVKPGGSLRLSCAASGFTFSSYSMNWVRQAPGKGLEWVSSISGSSSYIYYADSVKGRFTISRDNAKNSLYLQMNSLRAEDTAVYFCARGGSRGFDPWGQGTLVTVSS VL: DIQMTQSPSSLSASVGDRVTITCRASQSITSYLNWYQQKPGKAPKLLIYTASSLQSGVPSRFSGSGSGTDFTLTISSLQPEDFATYYCQQSHSFPFTFGPGTKVDIK
16 | 1.5 | 176H4 (antibody, V domains shown, mAb) VH: QVQLVESGGGVVQPGRSLRLSCAASGFTFSSYGMHWVRQAPGKGLEWVAIIWYDGSYKYYADSVKGRFTISRDNSKNTLYLQMSSLRAEDTAVYYCARDAHDFWSGYFAYWGQGALVTVSS VL: DIVMTQTPLSLSVTPGQPASISCKSSQSLLHGDGKTYLYWYLQKPGQPPQLLIYEVSNRFSGVPDRFSGSGSGTDFTLKISRVEAEDVGIYYCMQSIQIPWTFGQGTRVEIK
17 | 0.868 | 194C1 (antibody, V domains shown, mAb) VH: QVQLVESGGGVVQPGRSLRLSCAASGFTFSSYGMHWVRQAPGKGLEWVAVIWYDGSNEHYADSVKGRFTISRDNSKNTLYLQMNSLRAEDTAVYYCARNRGVGYYGLDVWGQGTTVTVSS VL: DIQMTQSPSSLSASVGDRVTITCRASQGISNYLAWFQQKPGKAPKSLIYAASSLQSGVPSKFSGSGSGTDFTLTISSLQPEDFATYYCLHYLTYPLTFGGGTKVEIK
18 | 1.75 | 197G3 (antibody, V domains shown, mAb) VH: QVQLVESGGGVVQPGRSLRLSCVASGFTFSSHGMHWVRQAPGKGLEWVAVIWYDGSNKNYADSVKGRFTISRDNSKNTLYLQMNSLRAEDTAVYYCARDPSVGYDGMDVWGQGTTVTVSS VL: DIQMTQSPSSLSASVGDRVTITCRASQGIGNHLAWFQQKPGKAPKSLIYAASSLQSGVPSKFSGSRSGTDFSLTISSLQPEDFATYYCQQYSNYPVTFGPGTKVDIK
19 | 0.75 | 198G3 (antibody, V domains shown, mAb) VH: QVQLVESGGGVVQPGRSLKLSCAASGFTFSTYGMHWVRQAPGKGLEWVAVIWYDGTNKNYADSVKGRFTISRDNSKNTLCLQMNSLRAEDTAVYYCARDQGVGYDGLDVWGQGTTVTVSS VL: DIQMAQSPSSLSASVGDRVTITCRTSQGIGKYLAWFQQKPGKAPKSLLYKASSLQGGVPSKFSGSGSGTDFTLTISSLQPEDFATYYCQQYMTYPLTFGGGTKVEIK
20 | 1.07 | 191G1 (antibody, V domains shown, mAb) VH: QVQLVESGGGVVQPGRSLRLSCAASGFTFSSYGMHWVRQAPGKGLEWVAVIWYDGSNEHYADSVKGRFTISRDNSKNTLYLQMNSLRAEDTAVYYCARDRGVGYYGLDVWGQGTTVTVSS VL: DIQMTQSPSSLSASVGDRVTITCRASQGISNYLAWFQQKPGKAPKSLIYAASSLQSGVPSKFSGSGSGTDFTLTISSLQPEDFATYYCQHYLTYPLTFGGGTKVEIK
21 | 0.912 | 191G10 (antibody, V domains shown, mAb) VH: QVQLVESGGGVVQPGRSLRLSCAASGFTFSSYGMHWVRQAPGKGLEWVAVIWYDGSNKNYADSVKGRFTISRDNSKNTLYLQMNSLRAEDTAVYYCARDQGVGYDGLDVWGQGTTVTVSS VL: DIQMTQSPSSLSASVGDRVTITCRTSQGIGKYLAWFQQKPGKAPKSLLYKVSSLQSGVPSKFSGSGSGTDFTLTISSLQPEDFATYYCQQYMTYPLTFGGGTKVEIK
